Measurements from patent publication US20020165132A1.
Positions of bridges follow the written chain, without caps; N, C: chain ends. Non-standard residues stand in square brackets, D forms with d. No end group written: not given here. AlaL = alanine half of a lanthionine (monosulfide) bridge; Thr(ol) = C[C@@H](O)[C@H](N)CO; dValL = not defined here

B1: Tyr-c[D-ValL-Gly-Phe-L-AlaL]-OMe (peptide)
peptide: Y[dValL]GF[AlaL]-OMe
modifications: thioether 2-5; reading uncertain; also: printed as Tyr-c[D-ValL-Gly-Phe-L-AlaL]-OMe
B2: Tyr-c[D-ValL-Gly-Phe-L-AlaL]-OH (peptide)
peptide: Y[dValL]GF[AlaL]-OH
modifications: thioether 2-5; reading uncertain; also: printed as Tyr-c[D-ValL-Gly-Phe-L-AlaL]-OH
B3: Tyr-c[D-ValL-Gly-Phe-D-AlaL]-OH (peptide)
peptide: Y[dValL]GF[dAlaL]-OH
modifications: thioether 2-5; reading uncertain; also: printed as Tyr-c[D-ValL-Gly-Phe-D-AlaL]-OH
B4: Tyr-c[D-AlaL-Gly-Phe-L-AlaL]-NH2 (peptide)
peptide: Y[dAlaL]GF[AlaL]-NH2
modifications: bridge 2-5; not fully specified (bridges); printed as Tyr-c[D-AlaL-Gly-Phe-L-AlaL]-NH2
B5: Tyr-c[D-AlaL-Gly-Phe-L-AlaL]-OH (peptide)
peptide: Y[dAlaL]GF[AlaL]-OH
modifications: bridge 2-5; not fully specified (bridges); printed as Tyr-c[D-AlaL-Gly-Phe-L-AlaL]-OH

Biological target: δ-receptor (mouse vas deferens preparation) (mouse) (UniProt P32300)
Experiment: cell-based or functional assay

Chain of δ-receptor (mouse vas deferens preparation) (mouse) (P32300 whole entry, stated change not applied): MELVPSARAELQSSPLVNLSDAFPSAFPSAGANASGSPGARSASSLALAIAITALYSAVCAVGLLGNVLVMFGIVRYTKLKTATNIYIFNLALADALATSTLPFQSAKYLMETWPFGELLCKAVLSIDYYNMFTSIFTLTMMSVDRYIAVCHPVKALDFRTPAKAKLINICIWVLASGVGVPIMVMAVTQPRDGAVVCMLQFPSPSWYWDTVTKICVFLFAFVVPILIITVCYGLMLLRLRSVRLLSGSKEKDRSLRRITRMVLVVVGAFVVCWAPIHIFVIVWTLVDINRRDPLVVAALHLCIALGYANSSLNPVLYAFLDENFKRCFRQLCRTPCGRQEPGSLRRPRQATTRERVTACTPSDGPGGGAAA

Compared with B1, Y[dAlaL]GF[dAlaL]-NH2 (thioether 2-5) [Tyr-c[D-AlaL-Gly-Phe-D-AlaL]-NH2] is 2.2-fold lower in MVD IC50: 3.65 nM for the first, 1.67 nM for the second.

Biological target: µ-receptor (guinea pig ileum preparation) (guinea pig)
Experiment: cell-based or functional assay

Going from B1 to B2, the GPI IC50 falls from 88.1 nM to 39 nM (2.3-fold).

Going from B3 to Y[dAlaL]GF[dAlaL]-NH2 (thioether 2-5) [Tyr-c[D-AlaL-Gly-Phe-D-AlaL]-NH2], the GPI IC50 falls from 535 nM to 1.67 nM (320-fold).

Biological target: SSTR2 Receptor (cloned somatostatin receptor)
Experiment: inhibition of radioligand binding to cloned SSTR2

Chain of SSTR2 Receptor (cloned somatostatin receptor) (P30875 whole entry): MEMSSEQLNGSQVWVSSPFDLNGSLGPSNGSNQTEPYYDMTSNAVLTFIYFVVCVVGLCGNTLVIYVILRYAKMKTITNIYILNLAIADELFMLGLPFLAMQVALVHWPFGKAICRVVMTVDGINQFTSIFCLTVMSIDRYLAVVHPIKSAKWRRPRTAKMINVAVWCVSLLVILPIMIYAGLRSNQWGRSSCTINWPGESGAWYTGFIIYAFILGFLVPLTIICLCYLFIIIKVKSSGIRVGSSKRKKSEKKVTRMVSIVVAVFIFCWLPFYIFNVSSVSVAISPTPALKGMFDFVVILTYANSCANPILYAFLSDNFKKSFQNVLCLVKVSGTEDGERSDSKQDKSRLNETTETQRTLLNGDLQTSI

First: [dF]CF[dW]KTC[Thr(ol)] (disulfide 2-7) [Sandostatin]
Second: AGCKNFFWKTFTSC (peptide, UniProt P61278 103-116, looked up, disulfide 3-14 (inferred)) [Somatostatin-14]
The IC50 of the first is 8.6-fold higher: 2.4 nM for the first, 0.28 nM for the second. The second is the more potent here.

First: H-[dF][AlaL]F[dW]KT[AlaL][Thr(ol)] (thioether 2-7) [H-D-Phe-c[AlaLPhe-D-Trp-Lys-Thr-AlaL]-Thr-ol]
Second: H-[dF][AlaL]F[dW]KT[AlaL]T-NH2 (thioether 2-7) [H-D-Phe-c[AlaLPhe-D-Trp-Lys-Thr-AlaL]-Thr-NH2]
The IC50 of the first is 2-fold lower: 5 nM for the first, 10 nM for the second.

Biological target: δ-receptor (mouse vas deferens preparation) (mouse), P32300
Experiment: cell-based or functional assay

Chain of δ-receptor (mouse vas deferens preparation) (mouse), P32300 (P32300 whole entry, stated change not applied): as the sequence (P32300 whole entry, stated change not applied) above

Compared with B4, B5 is 3.4-fold lower in MVD IC50: 0.54 nM for the first, 0.16 nM for the second.

Biological target: SSTR4 Receptor (cloned somatostatin receptor)
Experiment: inhibition of radioligand binding to cloned SSTR4

Chain of SSTR4 Receptor (cloned somatostatin receptor) (P30938 whole entry): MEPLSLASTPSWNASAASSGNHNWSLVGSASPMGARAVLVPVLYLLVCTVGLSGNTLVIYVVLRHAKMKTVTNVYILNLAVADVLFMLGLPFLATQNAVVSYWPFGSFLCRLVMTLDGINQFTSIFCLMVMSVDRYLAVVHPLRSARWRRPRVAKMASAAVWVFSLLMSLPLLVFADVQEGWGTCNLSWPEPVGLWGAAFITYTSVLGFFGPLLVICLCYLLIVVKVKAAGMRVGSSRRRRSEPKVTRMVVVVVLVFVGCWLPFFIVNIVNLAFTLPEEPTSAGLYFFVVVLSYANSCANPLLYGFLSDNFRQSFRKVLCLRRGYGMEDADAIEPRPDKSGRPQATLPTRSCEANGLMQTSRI

First: AGCKNFFWKTFTSC (peptide, UniProt P61278 103-116, looked up, disulfide 3-14 (inferred)) [Somatostatin-14]
Second: H-[dF][AlaL]F[dW]KT[AlaL]-OH (thioether 2-7) [H-D-Phe-c[AlaLPhe-D-Trp-Lys-Thr-AlaL]-OH]
The IC50 of the first is 580-fold lower: 0.86 nM for the first, 500 nM for the second. The first is the more potent here.

Going from H-[dF][AlaL]F[dW]KT[AlaL][Thr(ol)] (thioether 2-7) [H-D-Phe-c[AlaLPhe-D-Trp-Lys-Thr-AlaL]-Thr-ol] to H-[dF][AlaL]F[dW]KT[AlaL]T-NH2 (thioether 2-7) [H-D-Phe-c[AlaLPhe-D-Trp-Lys-Thr-AlaL]-Thr-NH2], the IC50 falls from 1 nM to 0.5 nM (2-fold).
